B1: CPEB3 Ribozyme (parent)
chain: UAACAGGGGGCCACAGCAGAAGCGUUCACGUCGCAGCCCCUGUCAGAUUCUGGUGAAUCUGCGAAUUCUGCUGUAUAUCUC

Variants of: B1
Experiment: self-cleavage, relative activity (ratio to wild type); higher = more cleavage; in vitro, sequencing
Method in brief: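 CPEB3 self-cleaving ribozyme mutant libraries were made by rounds of error-prone PCR, barcoded, and transcribed in vitro with T7 RNA polymerase for 5 hours at 37°C. Cleavage occurred during transcription and a 15 min DNase I step before EDTA stop. RNAs were reverse transcribed with template switching and Illumina-sequenced, with DNA sequencing mapping barcodes to variants. Relative activity is the variant's cleaved/total read fraction divided by wild type's (minimum 5 reads), averaged across three batches.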

Variant	self-cleavage
UAACAGGGGGCCACAGCAGAAGCGUUCACGUCGCAGCCGCUGUCAGAUUCUGGUGAAUCUGCGAAUUCUGCUGUAUAUCAC [C39G U80A]	0.09
UAACAGGGGGCCACAGCAGAAGCGUUCACGUCGCAGCCUCUGUCAGAUUCUGGUGAGUCUGCGAAUUCUGCUGUAUAUCUC [C39U A57G]	0.27
UAACAGGGGGCCACAGCAGAAGCGUUCACGUCGCAGCCUCUGUCAGAUUCUGGUGAAUCUGCGUAUUCUGCUGUAUAUCUC [C39U A64U]	0.36
UAACAGGGGGCCACAGCAGAAGCGUUCACGUCGCAGCCACUGUCAGAUUCUGGUGAAUCUGCGAAUUCUGCUGCAUAUCUC [C39A U74C]	0.49
UAACAGGGGGCCACAGCAGAAGCGUUCACGUCGCAGCCACUGUCAGAUUCUGGUGAAUCUGCGAAUUCUGCUGAAUAUCUC [C39A U74A]	0.53
UAACAGGGGGCCACAGCAGAAGCGUUCACGUCGCAGCCGCGGUCAGAUUCUGGUGAAUCUGCGAAUUCUGCUGUAUAUCUC [C39G U41G]	0.13
UAACAGGGGGCCACAGCAGAAGCGUUCACGUCGCAGCCGCAGUCAGAUUCUGGUGAAUCUGCGAAUUCUGCUGUAUAUCUC [C39G U41A]	0.21
UAACAGGGGGCCACAGCAGAAGCGUUCACGUCGCAGCCUCUGUCAGAUUCUGGUGUAUCUGCGAAUUCUGCUGUAUAUCUC [C39U A56U]	0.32
UAACAGGGGGCCACAGCAGAAGCGUUCACGUCGCAGCCUCUGUCAGAUUCUGGUGGAUCUGCGAAUUCUGCUGUAUAUCUC [C39U A56G]	0.48
UAACAGGGGGCCACAGCAGAAGCGUUCACGUCGCAGCCGCUGUCAGAUUCUGGUGAAUCUGCGAGUUCUGCUGUAUAUCUC [C39G A65G]	0.17
UAACAGGGGGCCACAGCAGAAGCGUUCACGUCGCAGCCACUGUCAGAUUCUGGUGAAUCUGCGAAUUCUGCUGUAUACCUC [C39A U78C]	0.26
UAACAGGGGGCCACAGCAGAAGCGUUCACGUCGCAGCCACUGUCAGAUUCUGGUGAAUCUGCGAAUUCUGCUGUAUAACUC [C39A U78A]	0.43
UAACAGGGGGCCACAGCAGAAGCGUUCACGUCGCAGCCUCUGUCAGAUUCUGGUGAAUCUGCGAGUUCUGCUGUAUAUCUC [C39U A65G]	0.32
UAACAGGGGGCCACAGCAGAAGCGUUCACGUCGCAGCCGCUGUCAGAUUCUGGUGAAUCUGUGAAUUCUGCUGUAUAUCUC [C39G C62U]	0.08
UAACAGGGGGCCACAGCAGAAGCGUUCACGUCGCAGCCGCUGUCAGAUUCUGGUGAAUCUGCGUAUUCUGCUGUAUAUCUC [C39G A64U]	0.35
UAACAGGGGGCCACAGCAGAAGCGUUCACGUCGCAGCCGCUGUCAGAUUCUGGUGAAUCUGCGCAUUCUGCUGUAUAUCUC [C39G A64C]	0.17
UAACAGGGGGCCACAGCAGAAGCGUUCACGUCGCAGCCGCUGUCAGAUUCUGGUGAAUCUGCGGAUUCUGCUGUAUAUCUC [C39G A64G]	0.38

Variant	self-cleavage
UAACAGGGGGCCACAGCAGAAGCGUUCACGUCGCAGCCUCUGUCAGGUUCUGGUGAAUCUGCGAAUUCUGCUGUAUAUCUC [C39U A47G]	0.48
UAACAGGGGGCCACAGCAGAAGCGUUCACGUCGCAGCCUCUGUCAGUUUCUGGUGAAUCUGCGAAUUCUGCUGUAUAUCUC [C39U A47U]	0.42
UAACAGGGGGCCACAGCAGAAGCGUUCACGUCGCAGCCGCUGUCAGAAUCUGGUGAAUCUGCGAAUUCUGCUGUAUAUCUC [C39G U48A]	0.15
UAACAGGGGGCCACAGCAGAAGCGUUCACGUCGCAGCCGCUGUCAGAUUCUGGUGAAUCUGCGAAUUCUACUGUAUAUCUC [C39G G70A]	0.15
UAACAGGGGGCCACAGCAGAAGCGUUCACGUCGCAGCCGCUGUCAGGUUCUGGUGAAUCUGCGAAUUCUGCUGUAUAUCUC [C39G A47G]	0.13
UAACAGGGGGCCACAGCAGAAGCGUUCACGUCGCAGCCACUGUCAGAUUCUGGUGAAUCUGCGAAUUCUGCUGUAUAUCAC [C39A U80A]	0.3
UAACAGGGGGCCACAGCAGAAGCGUUCACGUCGCAGCCACUGUCAGAUUCUGGUGAAUCUGCGAAUUCUGCUGUAUAUCCC [C39A U80C]	0.26
UAACAGGGGGCCACAGCAGAAGCGUUCACGUCGCAGCCGCUGUCGGAUUCUGGUGAAUCUGCGAAUUCUGCUGUAUAUCUC [C39G A45G]	0.29
UAACAGGGGGCCACAGCAGAAGCGUUCACGUCGCAGCCGCUGUCAGAUUCUGGUGAAUCUGCGAAUUCUGCCGUAUAUCUC [C39G U72C]	0.3
UAACAGGGGGCCACAGCAGAAGCGUUCACGUCGCAGCCUCUGUCGGAUUCUGGUGAAUCUGCGAAUUCUGCUGUAUAUCUC [C39U A45G]	0.69
UAACAGGGGGCCACAGCAGAAGCGUUCACGUCGCAGCCUCUGUCUGAUUCUGGUGAAUCUGCGAAUUCUGCUGUAUAUCUC [C39U A45U]	0.26
UAACAGGGGGCCACAGCAGAAGCGUUCACGUCGCAGCCGCUGUCAGAUCCUGGUGAAUCUGCGAAUUCUGCUGUAUAUCUC [C39G U49C]	0.12
UAACAGGGGGCCACAGCAGAAGCGUUCACGUCGCAGCCGCUGUCAGAUUCUGGUGAAUCAGCGAAUUCUGCUGUAUAUCUC [C39G U60A]	0.25
UAACAGGGGGCCACAGCAGAAGCGUUCACGUCGCAGCCUCUGUCAGAUUCUGGUGAAUCUGCGAAUUCUGCUGUAUAUCUC [C39U]	0.91
UAACAGGGGGCCACAGCAGAAGCGUUCACGUCGCAGCCGCUGUCAGAUUCUGGUGAAUCUGCGAAUUCUGCUGUAUAUCUC [C39G]	0.3
UAACAGGGGGCCACAGCAGAAGCGUUCACGUCGCAGCCGCUGUCAGAUUCUGGUGAGUCUGCGAAUUCUGCUGUAUAUCUC [C39G A57G]	0.19
UAACAGGGGGCCACAGCAGAAGCGUUCACGUCGCAGCCGCUGUCAGAUUGUGGUGAAUCUGCGAAUUCUGCUGUAUAUCUC [C39G C50G]	0.1
